For the data set, the system named is Escherichia coli TOP10. Put plainly: shrunken log2 fold change of peptide-encoding DNA abundance (4.5 h post-induction vs induction); higher = less antimicrobial activity (less host growth inhibition). Particulars: time post-induction: 4.5 h; library: site-saturation at positions 5, 18, 19, 20.
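Further: peptides expressed intracellularly from a pBAD plasmid library in pooled LB shake-flask culture, induced with 0.3% L-arabinose, DNA abundance read by NGS, three biological replicates, DESeq2 with apeglm shrinkage.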

As to RRIRGRPPRLPRPRPRPIIHPRP, the “shrunken log2 fold change” value was -0.261.
RRIRSRPPRLPRPRPRPHMYPRP: the “shrunken log2 fold change” value is -0.37.
RRIRSRPPRLPRPRPRPDWGPRP: the “shrunken log2 fold change” value is -0.128.
With RRIRMRPPRLPRPRPRPMWIPRP, the “shrunken log2 fold change” value was -0.217.
Regarding RRIRSRPPRLPRPRPRPSHDPRP, the “shrunken log2 fold change” value is -0.308.
As for RRIRRRPPRLPRPRPRPMEKPRP, the “shrunken log2 fold change” value is 0.096.
Consider RRIRYRPPRLPRPRPRPDKDPRP, for which the “shrunken log2 fold change” value is -0.151.
In the case of RRIRNRPPRLPRPRPRPIWPPRP, the “shrunken log2 fold change” value was found to be 0.152.
Take RRIRARPPRLPRPRPRPHHLPRP: the “shrunken log2 fold change” value is -0.313.
As to RRIRNRPPRLPRPRPRPKARPRP, the “shrunken log2 fold change” value was -0.00166.
Consider RRIRHRPPRLPRPRPRPTDHPRP, for which the “shrunken log2 fold change” value is -0.487.
In the case of RRIRSRPPRLPRPRPRPFQYPRP, the “shrunken log2 fold change” value is -0.177.
In the case of RRIRMRPPRLPRPRPRPLHKPRP, the “shrunken log2 fold change” value is 0.301.
On to RRIRWRPPRLPRPRPRPEFNPRP, for which the “shrunken log2 fold change” value was found to be 0.609.
With RRIRIRPPRLPRPRPRPWVQPRP, the “shrunken log2 fold change” value is -0.0105.
As for RRIRWRPPRLPRPRPRPVFKPRP, the “shrunken log2 fold change” value worked out at 0.0598.
RRIRDRPPRLPRPRPRPWEPPRP: the “shrunken log2 fold change” value was -1.35.
For the sequence RRIRTRPPRLPRPRPRPFNGPRP, the “shrunken log2 fold change” value is -0.142.
For RRIRWRPPRLPRPRPRPWCKPRP, the “shrunken log2 fold change” value was -0.239.
Take RRIRSRPPRLPRPRPRPCIDPRP: the “shrunken log2 fold change” value is -0.607.
With RRIRSRPPRLPRPRPRPFMPPRP the figure was -0.149.
As for RRIRGRPPRLPRPRPRPRLFPRP, the “shrunken log2 fold change” value is 1.11.
Regarding RRIRRRPPRLPRPRPRPCNAPRP, the “shrunken log2 fold change” value is -0.105.
With RRIRDRPPRLPRPRPRPDHVPRP, the “shrunken log2 fold change” value is -0.012.
For the sequence RRIRLRPPRLPRPRPRPHRMPRP, the “shrunken log2 fold change” value is -0.0961.
As to RRIRSRPPRLPRPRPRPMNLPRP, the “shrunken log2 fold change” value worked out at 0.048.
As to RRIRDRPPRLPRPRPRPKCGPRP, the “shrunken log2 fold change” value was 0.00846.
Take RRIRSRPPRLPRPRPRPLPEPRP: the “shrunken log2 fold change” value was found to be 0.278.
In the case of RRIRNRPPRLPRPRPRPTPWPRP, the “shrunken log2 fold change” value turned out to be 0.161.
On to RRIRYRPPRLPRPRPRPMNSPRP, for which the “shrunken log2 fold change” value was -0.0134.
RRIRRRPPRLPRPRPRPSSNPRP: the “shrunken log2 fold change” value was -0.148.
On to RRIRKRPPRLPRPRPRPCGFPRP, for which the “shrunken log2 fold change” value came to 0.279.
The result for RRIRTRPPRLPRPRPRPQPYPRP reads -0.322.
Take RRIRSRPPRLPRPRPRPKRIPRP: the “shrunken log2 fold change” value is -0.275.
RRIRGRPPRLPRPRPRPYYSPRP: the “shrunken log2 fold change” value is -0.207.
With RRIRPRPPRLPRPRPRPRTYPRP the figure was -0.196.
As for RRIRNRPPRLPRPRPRPDAMPRP, the “shrunken log2 fold change” value is -0.0496.
For RRIRWRPPRLPRPRPRPSGLPRP, the “shrunken log2 fold change” value turned out to be 0.155.
With RRIRMRPPRLPRPRPRPWNGPRP the figure was -0.0377.
For RRIRYRPPRLPRPRPRPFHKPRP, the “shrunken log2 fold change” value is -0.0655.
On to RRIRYRPPRLPRPRPRPFYCPRP, for which the “shrunken log2 fold change” value is -1.27.
With RRIRQRPPRLPRPRPRPDKHPRP the figure was -0.205; with RRIRFRPPRLPRPRPRPAMLPRP, 0.0665.
Take RRIRTRPPRLPRPRPRPPQTPRP: the “shrunken log2 fold change” value worked out at 0.457.
The result for RRIRARPPRLPRPRPRPRLAPRP reads 1.53; that for RRIRRRPPRLPRPRPRPYNKPRP, -0.664; that for RRIRSRPPRLPRPRPRPFFDPRP, 0.192.
For the sequence RRIRLRPPRLPRPRPRPCSHPRP, the “shrunken log2 fold change” value was -0.226.
Take RRIRVRPPRLPRPRPRPGQWPRP: the “shrunken log2 fold change” value was 0.0407.
For RRIRDRPPRLPRPRPRPTYPPRP, the “shrunken log2 fold change” value was -0.106.

Source of the values: the supplement of paper PMC9112550, “Optimization of the antimicrobial peptide Bac7 by deep mutational scanning” (BMC Biology, 2022).
